Measured values published in patent US7033788B2, “Protein derived from Agkistrodon saxatilis emelianov and process preparing the same” (priority 2002, dated 2006).

Experiments:
[1] = system: αVβ3 integrin on HUVEC surface; assay: HUVEC adhesion to Vitronectin-coated plate; format: cell-based, human; conditions: pre-incubation of bFGF-stimulated HUVEC 20 min; FIG. 4a
Protocol: To confirm that inhibition of HUVEC proliferation by Saxatilin is due to the direct interaction of Saxatilin with Vitronectin receptor, αVβ3 integrin, localized on the HUVEC surface, it was investigated whether Saxatilin blocks HUVEC from binding to Vitronectin-coated 96-well plate.
(§1) 96-well plate was coated with recombinant Saxatilin obtained in Example 6 (1 μg/well) as well as Vitronectin (0.5 μg/well) which were dissolved in phosphate buffered saline (PBS) for 16 hr at 4° C. After washing the plate, 10 mg/ml of heat-treated bovine serum albumin (BSA) was added for blocking of uncharged protein binding site. The plate was incubated for 1 hr and washed with PBS. HUVEC was trypsinized and washed with PBS three times, and then, resuspended in serum-free DMEM. 5×10^4 cells were mixed with anti-αVβ3 monoclonal antibody, a synthesized RGD peptide, GRGDSP (SEQ ID NO:7), a synthesized RGE peptide, GRGETP (SEQ ID NO:8) and Saxatilin, and pre-incubated for 20 min at 37° C. Then, the mixture was added to the wells of both Saxatilin and Vitronectin-coated 96-well plate. After 1 hr of incubation at 37° C. under an environment of 5% CO2, the plate was washed with PBS to remove unbound cells, and bound cells were fixed and stained with Coomassie blue. Optical absorbences of the wells were measured at 540 nm to count relative cell numbers (see: FIGS. 4a and 4b).

[2] = system: αVβ3 integrin on HUVEC surface; assay: HUVEC adhesion to Saxatilin-coated plate; format: cell-based, human; conditions: pre-incubation of bFGF-stimulated HUVEC 20 min; FIG. 4b
Protocol: as §1

[3] = system: human platelet rich plasma (PRP); format: cell-based; conditions: method of Example 1 (collagen-induced, human PRP); read-out: IC50 determined by platelet aggregation inhibition assay
Protocol: To isolate Saxatilin from the venom of Agkistrodon saxatilis emelianov, 302.4 mg of crude venom from the snake was applied to a SEPHADEX™ G-75 gel filtration column (1.8×100 cm) equilibrated with PBS buffer, and fractionated at a flow rate of 20 ml/h. The activity of Saxatilin was determined by the platelet aggregation inhibition assay: The concentrated human platelet rich plasma (PRP) obtained from 400 ml of human blood was diluted to the concentration of 300,000 platelets/μl. The diluted PRP (450 μl) was mixed with 50 μl of PBS and then incubated in the aggregometer CHROMO-LOGT™, USA) at 37° C. for 3 minutes. After collagen ([…]) was added into the PRP solution to induce the platelet aggregation, the difference of light transmittance was measured.
Recombinant Saxatilin obtained in Example 6 was assayed by the platelet aggregation inhibition method described in Example 1, and compared with those of wild-type Saxatilin obtained in Example 1 and GRGDSP (SEQ ID NO:7) (see: Table 1), respectively.

BCE cell = assay: bFGF-stimulated BCE cell proliferation; format: cell-based
male C57BL/6 mouse = assay: Acute toxicity (LD50); format: in vivo; conditions: subcutaneous injection, 7 days
Protocol: To examine the acute toxicity of Saxatilin as anti-platelet aggregation agent and anti-tumor agent, Saxatilin was injected into male C57BL/6 mouse subcutaneously and the dead were counted to determine LD50 for 7 days.

[4] = system: chick chorioallantoic membrane (CAM); assay: Chick chorioallantoic membrane (CAM) assay, bFGF-stimulated angiogenesis; format: in vivo; conditions: 5 μg applied to CAM, observed at 72 hr; FIG. 5b
Protocol: Chick chorioallantoic membrane (CAM) assay, a simulated in vivo model, was carried out to examine the effect of Saxatilin on bFGF-stimulated angiogenesis. A part of the rind of fertilized 3-day-old egg was broken carefully, and sealed with transparent tape, and incubated for 10 days at 37° C. under an environment of 60% humidity. Then, bFGF was applied to the chick chorioallantoic membrane (CAM) of individual embryo (6 ng/embryo) to induce angiogenesis. After further incubation of 24 hr, PBS as a negative control and 5 μg recombinant Saxatilin obtained from Example 6 were applied to CAM, respectively. At 72 hr after treatment, the blood vessels of embryos were observed (see: FIGS. 5a and 5b).

[5] = system: human platelet rich plasma; assay: Platelet aggregation inhibition assay, ADP-induced (Example 5); format: cell-based
Protocol: After ADP was added into each of the PRP solutions to induce the platelet aggregation, the turbidity was measured, respectively (see: FIG. 1).

HUVEC = assay: bFGF-stimulated HUVEC proliferation inhibition assay; format: cell-based, human; conditions: 0, 20, 30 μg/ml; 1 ng/ml bFGF; 72 hr; FIG. 3
Protocol: To investigate whether recombinant Saxatilin containing RGD sequence inhibits the endothelial cell proliferation, proliferation inhibition assay was performed using HUVEC.
HUVEC was cultured on 24-well microplate coated with gelatin at 37° C. for 24 hr under an environment of 5% CO2. […] Then, cells were further incubated for 20 min and treated with 1 ng/ml of bFGF solution. After incubation of 72 hr, cells were trypsinized and the cell numbers were counted to determine cell viability (see: FIG. 3).

ICR mice = assay: Collagen/epinephrine-induced thrombosis in mice, viability; format: in vivo, mouse; conditions: 10 min before collagen + epinephrine
Protocol: When a mixture of collagen and epinephrine was injected into mice intravenously, thrombus was formed in pulmonary artery, which led to paralysis, dilation of pupil, laboring breath and convulsions, and finally 70% of the mice died not more than 5 min. Thus, it was investigated whether the intravenous injection of recombinant Saxatilin could reduce the thrombosis symptoms.
At 10 minutes after Saxatilin (0, 0.1, 0.25 and 0.5 mg/kg dissolved in 0.1 ml PBS, respectively) was intravenously injected into the tails of ICR mice, the mixture of collagen and epinephrine (120 μg collagen and 12 μg epinephrine in 0.1 ml PBS) was also injected into the tails of ICR mice, intravenously, and the viability was determined (see: Table 2).

[6] = system: Lewis lung carcinoma cells; assay: Metastatic Lewis lung carcinoma growth in mice; format: in vivo, C57BL/6 mice
Protocol: 1×10^6 Lewis lung carcinoma cells (purchased from […], Rockville, Md., USA) were injected into the tails of 8-week-old male C57BL/6 mice (Charles river, Japan), intravenously. At 4 day after injection, recombinant Saxatilin obtained from Example 6 was periodically applied to mice by intravenous injection in an amount of 1.25 mg/kg/day (once per day). After 4-weeks of periodical treatment, tumor-bearing mice were sacrificed, and the number of tumor colony was counted by using stereomicroscope.
Furthermore, to observe the direct effect of Saxatilin on the metastatic lung carcinoma, histochemical study was carried out. Tumor-bearing lung tissue was fixed in paraffin in accordance with the conventionally known method followed by treatment of Bouin's solution for 4 hours. The tissue section of 4 μm thickness was infiltrated with trypsin at 37° C. for 10 min and washed with PBS. The tissue section was stained with hematoxylin and eosin, and then mounted (see: FIGS. 6a, 6b and 6c). FIG. 6a is a photograph showing lung tissue without Lewis lung carcinoma cell; FIG. 6b, lung tissue implanted with Lewis lung carcinoma cell and then treated with PBS; and, FIG. 6c, lung tissue implanted with Lewis lung carcinoma cell and then treated with Saxatilin. […] As illustrated as above, it was assumed that the suppression of metastatic tumor growth in Saxatilin-treated mice was due to blockade of Saxatilin against angiogenesis, which was essential for the secondary tumor growth.

[7] = 1.25 mg/kg/day i.v. from day 4, 4 weeks, C57BL/6 mice

N=C(N)NCCC[C@H](NC(=O)CN)C(=O)NCC(=O)N[C@@H](CC(=O)O)C(=O)N[C@@H](CO)C(=O)N1CCC[C@H]1C(=O)O [GRGDSP, reference compound]
HUVEC adhering to Vitronectin [1]: prevented HUVEC from adhering | HUVEC adhering to Saxatilin [2]: prevented HUVEC from adhering | IC50 [3]: 270000 nM

B1: Saxatilin (protein)
chain: EAGEECDCGAPANPCCDAATCKLRPGAQCAEGLCCDQCRFMKEGTICRMARGDDMDDYCNGISAGCPRNPFHA
bFGF-stimulated BCE cell proliferation (BCE cell): potently inhibited | LD50 (male C57BL/6 mouse): about 1100 mg/kg | effect on bFGF-stimulated angiogenesis (CAM) [4]: had an inhibitory effect on angiogenesis | IC50 ([5]; ADP-induced aggregation, human PRP, 25° C.): 179 nM | inhibitory effect relative to GRGDSP peptide ([5]; ADP-induced platelet aggregation, more potent than GRGDSP): 1000 times | effect on HUVEC growth (HUVEC): inhibited the HUVEC growth in a dose-dependent manner | HUVEC adhering to Vitronectin [1]: prevented HUVEC from adhering | Mortal group/Total group (ICR mice; 0.1 mg/kg i.v.): 16/20 | Viability (ICR mice; 0.1 mg/kg i.v.): 20 | Mortal group/Total group (ICR mice; 0.25 mg/kg i.v.): 11/20 | Viability (ICR mice; 0.25 mg/kg i.v.): 55 | Mortal group/Total group (ICR mice; 0.5 mg/kg i.v.): 3/20 | Viability (ICR mice; 0.5 mg/kg i.v.): 85 | Average colony number [6, 7]: 0.7 ± 0.6 | Inhibition rate (%) [6, 7]: 95% | effect on metastatic tumor growth ([6]; 1.25 mg/kg/day i.v., 4 weeks): potently inhibited the metastatic tumor growth | metastatic tumor growth in lung tissue, histochemical study ([6]; hematoxylin and eosin stained lung sections, FIG. 6c): not observed | toxicity on tested mice ([6]; tumor-bearing mice, 1.25 mg/kg/day i.v.): no toxicity | HUVEC adhering to Saxatilin [2]: prevented HUVEC from adhering

B2: Recombinant Saxatilin: Saxatilin expressed in Pichia pastoris transformed with pPSAX, obtained in Example 6 (protein)
chain: EAGEECDCGAPANPCCDAATCKLRPGAQCAEGLCCDQCRFMKEGTICRMARGDDMDDYCNGISAGCPRNPFHA
IC50 [3]: 139 nM
